# Assay results taken from patent publication US20190227063A1.
# Assays:
# [1] = biological target: HLA-A*02:01 in complex with PRAME300-309 peptide …, on T2 cells expressing the PresentER ALY minigene (human); assay: flow cytometry histograms, T2 cells expressing PresentER minigenes
# [2] = biological target: HLA-A*02:01 in complex with WT1 aa126-134 peptide …, on T2 cells expressing the PresentER RMF minigene (human); assay: >
fluorescence units (FU) [1] [FU],fluorescence units (FU) [2],Substance
< 1000,1000 >,ESK1 TCR mimic (TCRm) monoclonal antibody
> 1100,–,Pr20 TCR mimic (TCRm) monoclonal antibody
